From paper PMC10816986, “The Role of Key Amino Acids of the Human Fe(II)/2OG-Dependent Dioxygenase ALKBH3 in Structural Dynamics and Repair Activity toward Methylated DNA” (International Journal of Molecular Sciences, 2024)
Several values for one entry are separate records, joined by “and”; a condition that tells them apart may be missing. Equal values may be shown once.

Tests used:
[1] = Equilibrium fluorescence titration with 2OG; assay type: binding; conditions: 1 µM apoprotein, 25 °C, read-out: Dissociation constant Kd, 2OG
Text: (§1) To investigate the impact of selected mutations on ALKBH3’s ability to bind its cofactor, co-substrate, and methylated DNA, the fluorescent titration method was employed. It is well-established that enzyme–ligand binding typically leads to a protein conformational change, which in turn can alter the fluorescence intensity of tryptophan and tyrosine residues within the protein sequence. […] In this study, transitional metals (Fe(II), Ni(II), and Co(II)), 2OG, and the m3C substrate served as titrants. Protein fluorescence quenching was measured after the addition of an excess of the ligand to 1 µM of enzyme (Supplementary Figure S2). To determine the equilibrium dissociation constant’s Kd values, the resulting titration curves were analyzed using a non-linear regression algorithm (see Section 4.3 of “Materials and Methods” for details). […] As indicated by the data presented in Table 2, the stability of the wt ALKBH3 apoenzyme’s affinity to various ligands and damaged DNA generally corresponds to the stability of such complexes for AlkB and ALKBH2 enzymes. […] The binding of Ni(II) and Co(II) ions of similar radii was weakened by approximately two-fold. […] This behavior is more characteristic of the bacterial homolog AlkB rather than human ALKBH2 [7].
(§2) The intrinsic tryptophan fluorescence quenching was monitored at the maximum of emission (345 nm, in most cases) using an excitation wavelength of 280 nm, and 5 nm slits. An amount of 2 mM of (NH4)2Fe(SO4)2·6H2O, 2 mM of NiSO4×7H2O, 2 mM of CoSO4·7H2O, 2 mM of 2OG, or 100 µM of m3C substrate was titrated into 1 µM of apoprotein (a free enzyme with no metal or 2OG added) in the presence of 50 mM of HEPES-KOH (pH 7.8), 50 mM of KCl, and 10 mM of MgCl2. When titrating with DNA, the buffer was supplemented with 2 mM of EDTA. The dissociation constant Kd for a model of one-step binding (E + L ↔ EL) was determined using Equations (2)–(5) and a non-linear regression algorithm in the OriginPro 8.1 software (OriginLab Corp., Northampton, MA, USA):(2) Kd=E[L]/[EL] (3) F=f0+f1E+f2[EL] (4) e0=E+[EL] (5) l0=L+[EL] where F is the observed fluorescence intensity at any given ligand (L) concentration; f0 is the background fluorescence; f1 and f2 are partial fluorescence intensities of the free enzyme (E) and enzyme–ligand complex (EL), respectively; e0 and l0 are total concentrations of the enzyme and ligand.
(§3) Figure S2. Equilibrium binding of the wild-type and mutant ALKBH3 proteins to transition metals, 2OG, or m3C-containing DNA. The quenching of the enzyme ﬂuorescence is shown as a function of Fe(II) (A), Ni(II) (B), Co(II) (C), 2OG ( D), and single-stranded m3C substrate (E). The protein concentration was 1 µM. In the course of titration by Fe(II), a sodium ascorbate (1mM) was added to keep the metal in a reduced state. Experimental data points were ﬁtted to a single-site binding mode l (see “Materials and Methods”). Each trace represents the average of three technical […]
(§4) (1 picture or pasted object on this page, not shown here)

[2] = Equilibrium fluorescence titration with Co(II); assay type: binding; conditions: 1 µM apoprotein, 25 °C; read-out: Dissociation constant Kd, Co(II)
Text: as §1, §2, §3, §4

[3] = Thermal denaturation followed by CD spectroscopy; assay type: physicochemical; conditions: for Tm: apoprotein 0.2 mg/mL, 10 mM potassium phosphate pH 7.8, 50 mM (NH4)2SO4; for ΔH (enthalpy of unfolding) / ΔS (entropy of unfolding): apoprotein, single-stage model; for ΔG^298: calculated from ΔH and ΔS at 298 K
Procedure: The effect of substitutions of conserved amino acids in the active site of ALKBH3 on its thermal stability was studied by circular dichroism (CD) spectroscopy combined with thermal denaturation of the samples. The CD data were collected for wt and mutant apoproteins at various temperatures (25–70 °C) with 2–5 °C intervals (Supplementary Figure S3). […] Melting profiles expressed as a temperature dependence of the mean residue ellipticity at 218 nm were largely sigmodal, indicating the presence of a single transition between the folded and unfolded state (Figure 6B).
The melting profiles were analyzed quantitatively using characteristic wavelengths between 208 and 222 nm by a single-stage model.
Thermal stability experiments were performed under the same conditions. The spectra were collected from 25 to 70 °C, with the samples incubated at each temperature for 3–5 min before measuring. After that, each sample was gradually cooled to 25 °C and the spectrum was recorded again to observe possible refolding of the protein. Melting curves were corrected for background, transformed to the mean residue ellipticity units, and smoothed using the Savitzky–Golay method with a polynomial order of 3. Values of [θ] at wavelengths of 208 and 218 nm as a function of temperature were used to determine the thermodynamics of folding. The values of Tm and ΔH were determined by non-linear regression analysis with the help of Equations (6)–(8):(6) θt=θu+θf−θuK/1+K, (7) K=exp(ΔH/1.987·tt/Tm−1)=exp(−ΔH−t·ΔS/1.987·t), (8) ΔG=−RTlnK where θt—the mean residue ellipticity (in deg·cm^2·dmol^−1) at any given temperature t; θu—the mean residue ellipticity of the unfolded protein; θf—the mean residue ellipticity of the folded protein; K—the constant of unfolding; Tm—the melting temperature; ΔH—the enthalpy of unfolding, ΔS—the entropy of unfolding.
Figure 6 Thermal stability of wt and mutant ALKBH3 proteins measured by CD spectroscopy. (A) Spectra of wt ALKBH3 between 180 and 270 nm at 25 °C (light blue), after heating to 70 °C (dark blue), and cooling again to 25 °C (dashed light blue). (B) Representative melting profiles of wt (blue), Y143F (yellow), Y143A (green), L177A (red), and H191A ALKBH3 (violet) derived from the θ values at 218 nm. The unfolding transitions were monitored 0.2 mg/mL of the apoprotein in 10 mM Potassium Phosphate (pH 7.8) and 50 mM (NH4)2SO4.

Row | Molecule | Kd ([1]; listed as wt) | Kd [1] | Kd [2] | Tm [3] | Tm ([3]; listed as wt) | ΔH (enthalpy of unfolding) [3] | ΔS (entropy of unfolding) [3] | ΔH (enthalpy of unfolding) ([3]; listed as wt) | ΔG^298 [3] | increase in ΔH relative to wt [3] | increase in ΔS relative to wt [3] | reduction in melting temperature relative to wt [3]
1 | wt ALKBH3: wild-type human Fe(II)/2OG-dependent dioxygenase ALKBH3 with N-terminal His-tag, expressed in E. coli (protein, UniProt Q96Q83 1-286, looked up, N-terminal His-tag, wild-type human Fe(II)/2OG-dependent dioxygenase ALKBH3 with N-terminal His-tag, expressed in E. coli) Alpha-ketoglutarate-dependent …: MEEKRRRARVQGAWAAPVKSQAIAQPATTAKSHLHQKPGQTWKNKEHHLSDREFVFKEPQQVVRRAPEPRVIDREGVYEISLSPTGVSRVCLYPGFVDVKEADWILEQLCQDVPWKQRTGIREDITYQQPRLTAWYGELPYTYSRITMEPNPHWHPVLRTLKNRIEENTGHTFNSLLCNLYRNEKDSVDWHSDDEPSLGRCPIIASLSFGATRTFEMRKKPPPEENGDYTYVERVKIPLDHGTLLIMEGATQADWQHRVPKEYHSREPRVNLTFRTVYPDPRGAPW | 52 ± 7 µM | ~50 µM | 52 ± 4 µM | 45.5 °C and 45.6 °C | 45.6 ± 0.7 °C | 42 kcal/mol | 133 ± 2 cal/mol·K | 43 ± 1 kcal/mol | 3.4 ± 0.1 kcal/mol |  |  | 
2 | H191A ALKBH3: ALKBH3 mutant, His191 replaced with Ala (protein, UniProt Q96Q83 1-286, looked up, variant H191A) Alpha-ketoglutarate-dependent …: MEEKRRRARVQGAWAAPVKSQAIAQPATTAKSHLHQKPGQTWKNKEHHLSDREFVFKEPQQVVRRAPEPRVIDREGVYEISLSPTGVSRVCLYPGFVDVKEADWILEQLCQDVPWKQRTGIREDITYQQPRLTAWYGELPYTYSRITMEPNPHWHPVLRTLKNRIEENTGHTFNSLLCNLYRNEKDSVDWASDDEPSLGRCPIIASLSFGATRTFEMRKKPPPEENGDYTYVERVKIPLDHGTLLIMEGATQADWQHRVPKEYHSREPRVNLTFRTVYPDPRGAPW |  | 34 ± 2 µM | 59 ± 6 µM | 42.7 ± 0.1 °C |  | 127 ± 9 kcal/mol | 403 cal/mol·K and 403 ± 0.4 cal/mol·K |  | 6.9 ± 0.5 kcal/mol |  |  | 
3 | Y143A ALKBH3: ALKBH3 mutant, Tyr143 replaced with Ala (protein, UniProt Q96Q83 1-286, looked up, variant Y143A) Alpha-ketoglutarate-dependent …: MEEKRRRARVQGAWAAPVKSQAIAQPATTAKSHLHQKPGQTWKNKEHHLSDREFVFKEPQQVVRRAPEPRVIDREGVYEISLSPTGVSRVCLYPGFVDVKEADWILEQLCQDVPWKQRTGIREDITYQQPRLTAWYGELPYTASRITMEPNPHWHPVLRTLKNRIEENTGHTFNSLLCNLYRNEKDSVDWHSDDEPSLGRCPIIASLSFGATRTFEMRKKPPPEENGDYTYVERVKIPLDHGTLLIMEGATQADWQHRVPKEYHSREPRVNLTFRTVYPDPRGAPW |  | 53 ± 10 µM | 44 ± 4 µM | 44.2 ± 0.2 °C |  | 54 ± 2 kcal/mol | 170 ± 0.6 cal/mol·K |  | 3.3 ± 0.1 kcal/mol |  |  | 
4 | Y143F ALKBH3: ALKBH3 mutant, Tyr143 replaced with Phe (protein, UniProt Q96Q83 1-286, looked up, variant Y143F) Alpha-ketoglutarate-dependent …: MEEKRRRARVQGAWAAPVKSQAIAQPATTAKSHLHQKPGQTWKNKEHHLSDREFVFKEPQQVVRRAPEPRVIDREGVYEISLSPTGVSRVCLYPGFVDVKEADWILEQLCQDVPWKQRTGIREDITYQQPRLTAWYGELPYTFSRITMEPNPHWHPVLRTLKNRIEENTGHTFNSLLCNLYRNEKDSVDWHSDDEPSLGRCPIIASLSFGATRTFEMRKKPPPEENGDYTYVERVKIPLDHGTLLIMEGATQADWQHRVPKEYHSREPRVNLTFRTVYPDPRGAPW |  | 52 ± 4 µM | 40 ± 3 µM | 43.5 ± 0.4 °C |  | 75 ± 5 kcal/mol | 236 ± 3 cal/mol·K |  | 4.7 ± 0.3 kcal/mol | 32 kcal/mol | 103 cal/mol·K | 2.1 °C
5 | L177A ALKBH3: ALKBH3 mutant, Leu177 replaced with Ala (protein, UniProt Q96Q83 1-286, looked up, variant L177A) Alpha-ketoglutarate-dependent …: MEEKRRRARVQGAWAAPVKSQAIAQPATTAKSHLHQKPGQTWKNKEHHLSDREFVFKEPQQVVRRAPEPRVIDREGVYEISLSPTGVSRVCLYPGFVDVKEADWILEQLCQDVPWKQRTGIREDITYQQPRLTAWYGELPYTYSRITMEPNPHWHPVLRTLKNRIEENTGHTFNSLACNLYRNEKDSVDWHSDDEPSLGRCPIIASLSFGATRTFEMRKKPPPEENGDYTYVERVKIPLDHGTLLIMEGATQADWQHRVPKEYHSREPRVNLTFRTVYPDPRGAPW |  | 67 ± 8 µM | 98 ± 9 µM | 44.5 ± 0.6 °C |  | 79 ± 5 kcal/mol | 249 ± 1.3 cal/mol·K |  | 4.8 ± 0.4 kcal/mol |  |  | 1.1 °C
